Target: EGFR on U87MG.de2-7 cells (UniProt P00533)
Experiment: flow cytometry on U87MG.de2-7 cells, Alexa Fluor 488 anti-human IgG Fc

- EC50: 9 nM
B1: DB001 DVD-Ig (CD3 and EGFR) (bispecific antibody)
VH: QVQLQESGPGLVKPSQTLSLTCTVSGYSISSDFAWNWIRQPPGKGLEWMGYISYSGNTRYQPSLKSRITISRDTSKNQFFLKLNSVTAADTATYYCVTAGRGFPYWGQGTLVTVSSASTKGPEVQLVESGGGLVQPGGSLRLSCAASGFTFSTYAMNWVRQAPGKGLEWVGRIRSKYNNYATYYADSVKDRFTISRDDSKNTAYLQMNSLRAEDTAVYYCTRHGNFGNSYVSWFAYWGQGTLVTVSS
VL: DIQMTQSPSSMSVSVGDRVTITCHSSQDINSNIGWLQQKPGKSFKGLIYHGTNLDDGVPSRFSGSGSGTDYTLTISSLQPEDFATYYCVQYAQFPWTFGGGTKLEIKTVAAPSVFIFPPDAQVTQSPSSLSASVGDRVTITCRSSTGAVTTSNYANWVQEKPGKLFKGLIGGTNKRAPGVPSRFSGSGSGTDATLTISSLQPEDFATYFCALWYSNLWVFGGGTKVEIKR
